Data taken from the supplement of paper PMC9112550, “Optimization of the antimicrobial peptide Bac7 by deep mutational scanning” (BMC Biology, 2022).

Test system: Escherichia coli TOP10
Assay: shrunken log2 fold change of peptide-encoding DNA abundance (4.5 h post-induction vs induction); higher = less antimicrobial activity (less host growth inhibition)
Details: time post-induction: 4.5 h; library: site-saturation at positions 5, 18, 19, 20
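Also: peptides expressed intracellularly from a pBAD plasmid library in pooled LB shake-flask culture, induced with 0.3% L-arabinose, DNA abundance read by NGS, three biological replicates, DESeq2 with apeglm shrinkage.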

RRIRSRPPRLPRPRPRPYAMPRP
shrunken log2 fold change: -0.909

RRIRTRPPRLPRPRPRPHVAPRP
shrunken log2 fold change: 0.268

RRIRSRPPRLPRPRPRPNYRPRP
shrunken log2 fold change: -0.366

RRIRPRPPRLPRPRPRPFYMPRP
shrunken log2 fold change: -0.324

RRIRERPPRLPRPRPRPLFWPRP
shrunken log2 fold change: 0.219

RRIRCRPPRLPRPRPRPHQGPRP
shrunken log2 fold change: -0.0624

RRIRLRPPRLPRPRPRPCVPPRP
shrunken log2 fold change: -0.208

RRIRARPPRLPRPRPRPVFQPRP
shrunken log2 fold change: 0.000109

RRIRFRPPRLPRPRPRPVTIPRP
shrunken log2 fold change: -0.118

RRIRNRPPRLPRPRPRPLDVPRP
shrunken log2 fold change: -0.251

RRIRTRPPRLPRPRPRPLRFPRP
shrunken log2 fold change: 0.742

RRIRVRPPRLPRPRPRPWDMPRP
shrunken log2 fold change: -0.184

RRIRVRPPRLPRPRPRPQKCPRP
shrunken log2 fold change: -0.0983

RRIRLRPPRLPRPRPRPIDLPRP
shrunken log2 fold change: -0.0804

RRIRNRPPRLPRPRPRPPTLPRP
shrunken log2 fold change: -0.204

RRIRPRPPRLPRPRPRPDMKPRP
shrunken log2 fold change: -0.417

RRIRDRPPRLPRPRPRPLCQPRP
shrunken log2 fold change: 0.0964

RRIRERPPRLPRPRPRPCIYPRP
shrunken log2 fold change: -0.328

RRIRDRPPRLPRPRPRPLAVPRP
shrunken log2 fold change: 0.887

RRIRSRPPRLPRPRPRPHYYPRP
shrunken log2 fold change: -0.581

RRIRPRPPRLPRPRPRPWQHPRP
shrunken log2 fold change: -0.105

RRIRLRPPRLPRPRPRPLNAPRP
shrunken log2 fold change: -0.0775

RRIRLRPPRLPRPRPRPPFKPRP
shrunken log2 fold change: 0.0605

RRIRMRPPRLPRPRPRPCVAPRP
shrunken log2 fold change: 0.764

RRIRKRPPRLPRPRPRPGLEPRP
shrunken log2 fold change: 1.18

RRIRIRPPRLPRPRPRPVWIPRP
shrunken log2 fold change: -0.242

RRIRRRPPRLPRPRPRPGYIPRP
shrunken log2 fold change: -0.177

RRIRLRPPRLPRPRPRPCDVPRP
shrunken log2 fold change: -0.255

RRIRSRPPRLPRPRPRPSDTPRP
shrunken log2 fold change: -0.396

RRIRLRPPRLPRPRPRPQFYPRP
shrunken log2 fold change: -0.727

RRIRGRPPRLPRPRPRPIPDPRP
shrunken log2 fold change: 0.238

RRIRQRPPRLPRPRPRPFRFPRP
shrunken log2 fold change: 0.0421

RRIRNRPPRLPRPRPRPNPWPRP
shrunken log2 fold change: 0.107

RRIRARPPRLPRPRPRPSMFPRP
shrunken log2 fold change: 0.00699

RRIRQRPPRLPRPRPRPWGPPRP
shrunken log2 fold change: 0.0893

RRIRWRPPRLPRPRPRPFHGPRP
shrunken log2 fold change: -0.229

RRIRWRPPRLPRPRPRPECSPRP
shrunken log2 fold change: 0.966

RRIRWRPPRLPRPRPRPDPVPRP
shrunken log2 fold change: 0.0369

RRIRVRPPRLPRPRPRPNYMPRP
shrunken log2 fold change: -0.923

RRIRVRPPRLPRPRPRPVCCPRP
shrunken log2 fold change: 0.0608

RRIRFRPPRLPRPRPRPDHDPRP
shrunken log2 fold change: -0.217

RRIRQRPPRLPRPRPRPRNHPRP
shrunken log2 fold change: -0.137

RRIRYRPPRLPRPRPRPWKLPRP
shrunken log2 fold change: -0.121

RRIRMRPPRLPRPRPRPDSAPRP
shrunken log2 fold change: 0.599

RRIRSRPPRLPRPRPRPRPHPRP
shrunken log2 fold change: 0.151

RRIRMRPPRLPRPRPRPRDAPRP
shrunken log2 fold change: 1.49

RRIRARPPRLPRPRPRPMFMPRP
shrunken log2 fold change: 0.749

RRIRGRPPRLPRPRPRPCFKPRP
shrunken log2 fold change: 0.00363

RRIRMRPPRLPRPRPRPLPYPRP
shrunken log2 fold change: 0.0635

RRIRPRPPRLPRPRPRPSSVPRP
shrunken log2 fold change: 0.0854

RRIRCRPPRLPRPRPRPDWLPRP
shrunken log2 fold change: -0.0386

RRIRERPPRLPRPRPRPEVNPRP
shrunken log2 fold change: -0.0365

RRIRPRPPRLPRPRPRPDWHPRP
shrunken log2 fold change: -0.159

RRIRGRPPRLPRPRPRPWMDPRP
shrunken log2 fold change: 0.166

RRIRLRPPRLPRPRPRPANLPRP
shrunken log2 fold change: -0.00914

RRIRYRPPRLPRPRPRPDLYPRP
shrunken log2 fold change: -0.0604

RRIRKRPPRLPRPRPRPASRPRP
shrunken log2 fold change: 0.519

RRIRERPPRLPRPRPRPYKTPRP
shrunken log2 fold change: -0.00814

RRIRHRPPRLPRPRPRPHYHPRP
shrunken log2 fold change: -0.785

RRIRNRPPRLPRPRPRPGRIPRP
shrunken log2 fold change: -0.0181

RRIRKRPPRLPRPRPRPDLSPRP
shrunken log2 fold change: -0.0341

RRIRMRPPRLPRPRPRPPIRPRP
shrunken log2 fold change: 0.248

RRIRYRPPRLPRPRPRPQPGPRP
shrunken log2 fold change: -0.0846

RRIRCRPPRLPRPRPRPKRPPRP
shrunken log2 fold change: 0.158

RRIRIRPPRLPRPRPRPIKYPRP
shrunken log2 fold change: -2.06

RRIRMRPPRLPRPRPRPPEIPRP
shrunken log2 fold change: 0.48

RRIRRRPPRLPRPRPRPTHYPRP
shrunken log2 fold change: 1.2

RRIRGRPPRLPRPRPRPNGLPRP
shrunken log2 fold change: 0.377

RRIRYRPPRLPRPRPRPGALPRP
shrunken log2 fold change: 0.137

RRIRRRPPRLPRPRPRPRGAPRP
shrunken log2 fold change: 0.8

RRIRGRPPRLPRPRPRPHGCPRP
shrunken log2 fold change: 0.585

RRIRPRPPRLPRPRPRPDWNPRP
shrunken log2 fold change: -0.0666

RRIRARPPRLPRPRPRPMIMPRP
shrunken log2 fold change: -0.0807

RRIRDRPPRLPRPRPRPQPFPRP
shrunken log2 fold change: -0.0264

RRIRNRPPRLPRPRPRPQPRPRP
shrunken log2 fold change: 0.507

RRIRARPPRLPRPRPRPRIDPRP
shrunken log2 fold change: 0.74

RRIRNRPPRLPRPRPRPSVMPRP
shrunken log2 fold change: -0.281

RRIRTRPPRLPRPRPRPSQPPRP
shrunken log2 fold change: -0.16

RRIRYRPPRLPRPRPRPPWSPRP
shrunken log2 fold change: -0.372

RRIRPRPPRLPRPRPRPHHGPRP
shrunken log2 fold change: 0.0245

RRIRWRPPRLPRPRPRPYKWPRP
shrunken log2 fold change: -0.484

RRIRIRPPRLPRPRPRPHFAPRP
shrunken log2 fold change: -0.135

RRIRIRPPRLPRPRPRPPTTPRP
shrunken log2 fold change: 0.0744

RRIRKRPPRLPRPRPRPMISPRP
shrunken log2 fold change: 0.18

RRIRWRPPRLPRPRPRPNKLPRP
shrunken log2 fold change: -0.277

RRIRWRPPRLPRPRPRPRIGPRP
shrunken log2 fold change: 0.138

RRIRLRPPRLPRPRPRPNPLPRP
shrunken log2 fold change: 0.256

RRIRYRPPRLPRPRPRPQYDPRP
shrunken log2 fold change: -0.0291

RRIRERPPRLPRPRPRPCLHPRP
shrunken log2 fold change: -0.0164

RRIRDRPPRLPRPRPRPLSVPRP
shrunken log2 fold change: -0.0465

RRIRERPPRLPRPRPRPQGNPRP
shrunken log2 fold change: -0.166

RRIRVRPPRLPRPRPRPMAAPRP
shrunken log2 fold change: 0.287

RRIRTRPPRLPRPRPRPYNLPRP
shrunken log2 fold change: -0.336

RRIRNRPPRLPRPRPRPLICPRP
shrunken log2 fold change: -0.771

RRIRKRPPRLPRPRPRPIKIPRP
shrunken log2 fold change: -0.149

RRIRVRPPRLPRPRPRPAWRPRP
shrunken log2 fold change: 0.712

RRIRHRPPRLPRPRPRPRLQPRP
shrunken log2 fold change: 0.0915

RRIRWRPPRLPRPRPRPHAMPRP
shrunken log2 fold change: 0.00797

RRIRIRPPRLPRPRPRPCMWPRP
shrunken log2 fold change: -1.51

RRIRERPPRLPRPRPRPFLTPRP
shrunken log2 fold change: -0.506

RRIRARPPRLPRPRPRPPFTPRP
shrunken log2 fold change: 0.3

RRIRTRPPRLPRPRPRPLCGPRP
shrunken log2 fold change: 0.0512

RRIRCRPPRLPRPRPRPYSLPRP
shrunken log2 fold change: -0.258

RRIRWRPPRLPRPRPRPGMFPRP
shrunken log2 fold change: 0.281

RRIRDRPPRLPRPRPRPPYAPRP
shrunken log2 fold change: 0.0432

RRIRDRPPRLPRPRPRPGDAPRP
shrunken log2 fold change: 0.207

RRIRHRPPRLPRPRPRPWVWPRP
shrunken log2 fold change: 0.296

RRIRIRPPRLPRPRPRPTRHPRP
shrunken log2 fold change: 0.0172

RRIRARPPRLPRPRPRPKNYPRP
shrunken log2 fold change: -0.279
